± gives the standard deviation of the averaged measurements.
Tested on: ATP
Assay: switch fluorescence ratio, 500 uM ATP over buffer (Cy3 cluster intensity, sum of 5 cycles each) (fold (ratio)); higher = stronger signal-on switching upon ATP binding; sequences stand for … in TCGTCGGCAGCGTCAGATGTGTATAAGAGACAGTTTTTTTTTTTTTTTTTTTTTTTTT…TC
Conditions: aptamer strand: ATP DNA aptamer (quencher-CACCTGGGGGAGTATTGCGGAGGAAGG + anchor), 100 nM annealed; ATP concentration: 500 uM
Summary of the method: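 Five buffer/ATP imaging cycles were run on Cy3-labelled switching-strand clusters on a modified Illumina MiSeq flow-cell, with NaOH stripping and re-annealing between cycles. In each cycle, clusters annealed to 100 nM quencher-labelled ATP aptamer were imaged in selection buffer, then after 15 min with 500 uM ATP at 22 °C. Per cluster, the fluorescence ratio is summed target-cycle over summed buffer-cycle Cy3 intensity, averaged per switch-domain sequence. Only clusters within 100-1000 RFU were kept.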
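Further: ATP exposure 15 min at 22 °C before imaging.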

| Sequence | switch fluorescence ratio |
| --- | --- |
| TCTGGACATT | 1.01 ± 0.023 |
| TCTGGGAGGG | 1.03 ± 0.047 |
| TCTGGGCCAT | 1.29 ± 0.43 |
| TCTGGGCTTG | 0.999 ± 0.015 |
| TCTGGGGCTT | 1.0237 ± 0.00017 |
| TCTGGGGGAC | 1.05 ± 0.015 |
| TCTGGGGGGT | 1.02 ± 0.035 |
| TCTGGGGGTT | 1.02 ± 0.054 |
| TCTGGGTGGC | 0.996 ± 0.028 |
| TCTGGGTTAT | 0.988 ± 0.033 |
| TCTGGTTGGA | 1.04 ± 0.025 |
| TCTGTAGCGG | 1.13 ± 0.037 |
| TCTGTATACA | 0.989 ± 0.037 |
| TCTGTCTAGT | 1.01 ± 0.02 |
| TCTGTGAGTG | 0.973 ± 0.014 |
| TCTGTGCATA | 1.52 ± 0.1 |
| TCTGTGGCCC | 1.01 ± 0.028 |
| TCTGTGGGGA | 1.04 ± 0.045 |
| TCTGTGTATT | 1.03 ± 0.037 |
| TCTGTTCA | 1.005 ± 0.0075 |
| TCTGTTTACG | 0.996 ± 0.016 |
| TCTGTTTTAT | 0.976 ± 0.017 |
| TCTTAAAATT | 1.012 ± 0.0091 |
| TCTTAAAGAT | 1.06 ± 0.022 |
| TCTTAAAGGT | 0.986 ± 0.026 |
| TCTTAAGTGC | 1.07 ± 0.026 |

| Sequence | switch fluorescence ratio |
| --- | --- |
| TCTTACGCCA | 1.06 ± 0.016 |
| TCTTATGCTC | 0.98 ± 0.022 |
| TCTTCCGGTG | 1.68 ± 0.045 |
| TCTTCCTAGA | 1.031 ± 0.01 |
| TCTTCGGAGT | 1.03 ± 0.058 |
| TCTTCGGGGG | 1.07 ± 0.032 |
| TCTTGAATAA | 0.9856 ± 0.0072 |
| TCTTGAGCAT | 1.34 ± 0.13 |
| TCTTGAGGGA | 1 ± 0.02 |
| TCTTGATGGA | 0.9597 ± 0.0014 |
| TCTTGCATAG | 1.11 ± 0.025 |
| TCTTGGAACG | 0.998 ± 0.015 |
| TCTTGGACGA | 0.991 ± 0.025 |
| TCTTGGGCAT | 1.01 ± 0.04 |
| TCTTGGGGAG | 0.9815 ± 0.0083 |
| TCTTGGTTTC | 0.997 ± 0.013 |
| TCTTGTAAGT | 0.992 ± 0.023 |
| TCTTGTATAA | 0.9758 ± 0.0029 |
| TCTTGTATAG | 0.966 ± 0.032 |
| TCTTGTTATT | 0.9985 ± 0.0054 |
| TCTTGTTGGG | 1.01 ± 0.023 |
| TCTTGTTTTT | 0.977 ± 0.022 |
| TCTTTAATGG | 1.01 ± 0.042 |
| TCTTTATACT | 1.05 ± 0.034 |
| TCTTTATCCC | 1.18 ± 0.084 |
| TCTTTCATGT | 1.02 ± 0.02 |

| Sequence | switch fluorescence ratio |
| --- | --- |
| TCTTTGAAGT | 1 ± 0.019 |
| TCTTTGGGAC | 0.994 ± 0.028 |
| TCTTTTGGGG | 1.03 ± 0.024 |
| TCTTTTTTAG | 0.998 ± 0.036 |
| TCTTTTTTTA | 1.02 ± 0.06 |
| TCTTTTTTTT | 1 ± 0.041 |
| TGAAAACACG | 1.17 ± 0.22 |
| TGAAAATCGG | 0.965 ± 0.02 |
| TGAAACCACT | 1.1 ± 0.013 |
| TGAAACGCTG | 1.06 ± 0.04 |
| TGAAAGCCGG | 0.965 ± 0.045 |
| TGAAAGCGCC | 1.07 ± 0.03 |
| TGAAAGTGGA | 1.05 ± 0.034 |
| TGAAATAGGT | 0.99 ± 0.036 |
| TGAAATATGT | 0.987 ± 0.04 |
| TGAAATTTTA | 0.9926 ± 0.006 |
| TGAAATTTTT | 0.982 ± 0.029 |
| TGAACGACGG | 1.02 ± 0.073 |
| TGAACGGGCC | 1.036 ± 0.00055 |
| TGAACTGTTC | 1.04 ± 0.069 |
| TGAAGACTGA | 1 ± 0.012 |
| TGAAGATAAC | 1.02 ± 0.026 |
| TGAAGCCAGT | 1 ± 0.024 |
| TGAAGGACGT | 0.996 ± 0.019 |
| TGAAGGAGGG | 1.02 ± 0.06 |
| TGAAGGCCGG | 0.995 ± 0.033 |

| Sequence | switch fluorescence ratio |
| --- | --- |
| TGAAGGCGGG | 1 ± 0.039 |
| TGAAGGGGGC | 0.994 ± 0.045 |
| TGAAGGGGGT | 0.999 ± 0.032 |
| TGAAGGGTCA | 0.968 ± 0.022 |
| TGAAGGTACA | 1.034 ± 0.0031 |
| TGAAGGTTAC | 1.02 ± 0.012 |
| TGAAGTAACA | 1.06 ± 0.038 |
| TGAAGTAAGC | 1.09 ± 0.12 |
| TGAAGTAATC | 1.42 ± 0.43 |
| TGAAGTATGG | 0.9517 ± 0.0024 |
| TGAAGTCCTT | 1.005 ± 0.0037 |
| TGAAGTGTTG | 0.99 ± 0.019 |
| TGAATAAGAG | 1.01 ± 0.026 |
| TGAATATTGT | 1.04 ± 0.051 |
| TGAATCTAGA | 1.01 ± 0.019 |
| TGAATGATGG | 1.02 ± 0.015 |
| TGAATGTGGT | 0.97 ± 0.014 |
| TGAATTATGT | 0.985 ± 0.048 |
| TGAATTCTTT | 0.968 ± 0.041 |
| TGAATTTAT | 0.998 ± 0.012 |
| TGACAAAG | 0.9776 ± 0.0029 |
| TGACAAAGA | 1 ± 0.022 |
| TGACAATGTT | 0.994 ± 0.052 |
| TGACACTTAA | 1.07 ± 0.096 |
| TGACAGGATT | 0.9946 ± 0.0083 |
| TGACAGGGCT | 1.01 ± 0.011 |

| Sequence | switch fluorescence ratio |
| --- | --- |
| TGACCGCCGT | 1.06 ± 0.035 |
| TGACGAAGCG | 1.05 ± 0.035 |
| TGACGAGCTG | 1.03 ± 0.035 |
| TGACGGAGAA | 1.01 ± 0.015 |
| TGACGGCCTG | 1.06 ± 0.022 |
| TGACGGGAAT | 1.01 ± 0.013 |
| TGACGGGCGG | 1 ± 0.015 |
| TGACGGTGTC | 1.02 ± 0.0035 |
| TGACGTCAGT | 0.972 ± 0.014 |
| TGACTATGAT | 0.998 ± 0.015 |
| TGACTATTAA | 0.9845 ± 0.0022 |
| TGACTCACGG | 1.08 ± 0.029 |
| TGACTTCGCT | 1.2 ± 0.18 |
| TGACTTGGAC | 1.02 ± 0.013 |
| TGACTTTGTG | 1.02 ± 0.044 |
| TGACTTTTTC | 1.03 ± 0.016 |
| TGAGAAAAAT | 0.973 ± 0.018 |
| TGAGAACCCG | 1.02 ± 0.051 |
| TGAGAGAGGG | 0.983 ± 0.012 |
| TGAGAGATTG | 0.9773 ± 0.007 |
| TGAGAGTAT | 1.01 ± 0.034 |
| TGAGAGTGGG | 1.01 ± 0.021 |
| TGAGATATTG | 0.997 ± 0.018 |
| TGAGATCGCG | 1.004 ± 0.0018 |
| TGAGATGGTG | 0.9739 ± 0.0014 |
| TGAGATTTAG | 0.988 ± 0.026 |

| Sequence | switch fluorescence ratio |
| --- | --- |
| TGAGATTTTT | 0.975 ± 0.048 |
| TGAGCAGCGG | 1.01 ± 0.044 |
| TGAGCCTTAG | 1.09 ± 0.05 |
| TGAGCGGGTG | 1.01 ± 0.01 |
| TGAGCGTG | 0.9816 ± 0.0078 |
| TGAGCTAGGG | 1.005 ± 0.0026 |
| TGAGCTAGGT | 1 ± 0.033 |
| TGAGCTGGCT | 0.989 ± 0.021 |
| TGAGGAGGTT | 0.981 ± 0.072 |
| TGAGGCCGAA | 1.015 ± 0.0088 |
| TGAGGCTAGG | 1.02 ± 0.017 |
| TGAGGGAGGG | 1.01 ± 0.017 |
| TGAGGGATGG | 1.01 ± 0.017 |
| TGAGGGGATC | 1.02 ± 0.015 |
| TGAGGGGGAT | 1 ± 0.051 |
| TGAGGGGGGT | 0.976 ± 0.025 |
| TGAGGGGTAA | 0.993 ± 0.042 |
| TGAGGGGTCA | 1.002 ± 0.0076 |
| TGAGGGGTTG | 1 ± 0.036 |
| TGAGGGTTGG | 1.01 ± 0.027 |
| TGAGGGTTGT | 1.01 ± 0.046 |
| TGAGGTAACG | 0.992 ± 0.029 |
| TGAGGTAGGA | 0.9781 ± 0.0014 |

— the supplement of paper PMC10126150
